From PMC8363014, “OsMADS23 phosphorylated by SAPK9 confers drought and salt tolerance by regulating ABA biosynthesis in rice” (PLoS Genetics, 2021)

Target: T1, His-SAPK9 (rice, UniProt Q75V57 1-361)
T1 construct: SnRK2-type protein kinase SAPK9 from rice; source: E. coli DE3, pET-32a (+), purified
T1 sequence (looked up): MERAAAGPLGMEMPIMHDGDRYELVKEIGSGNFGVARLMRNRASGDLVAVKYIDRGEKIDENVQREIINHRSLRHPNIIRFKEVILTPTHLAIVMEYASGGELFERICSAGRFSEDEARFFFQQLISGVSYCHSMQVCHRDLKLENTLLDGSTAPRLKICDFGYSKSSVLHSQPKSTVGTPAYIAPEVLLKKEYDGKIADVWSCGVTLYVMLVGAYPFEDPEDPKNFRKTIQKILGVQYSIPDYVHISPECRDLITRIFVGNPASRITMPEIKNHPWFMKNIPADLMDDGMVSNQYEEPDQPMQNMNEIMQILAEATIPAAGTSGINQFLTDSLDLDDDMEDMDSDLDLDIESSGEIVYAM
Test: pull-down; 0.5 mg GST-OsMADS23 or GST on GST Bind Resin, 4°C, 2 h; then 0.5 mg purified His-SAPK9 for 2 h; three washes; western blot with anti-His
Conditions: both partners purified

B1: GST-tagged OsMADS23 (natural protein)
chain: not shown
notes: MADS-box transcription factor OsMADS23 from rice; Printed as GST-OsMADS23; also called GST-OsMADS23; source: E. coli BL21 (DE3), pGEX-4T-1, purified
**Q.** Does B1 bind?
**A.** binds
